Data published in US9284541B2, “Methods and compositions for protein labeling using lipoic acid ligases” (Massachusetts Institute of Technology, priority 2007, dated 2016).

Experiments:
FKBP-LAP1 = FKBP-LAP1 (Escherichia coli, UniProt P32099, W38V)
LAP-YFP fusion protein = test: Orthogonal resorufin and 7-hydroxycoumarin labeling in living HEK 293T cells; conditions: 5 μM resorufin-AM2 and 20 μM 7-hydrozycoumarin-AM2, 10 minutes
Experimental: After being rinsed with DPBS or HBSS, the transfected cells were incubated with 5 μM resorufin-AM2 and 20 μM 7-hydrozycoumarin-AM2 at 37° C. for 10 minutes.
The cells were washed with the culture medium, cultured at 37° C. for 30 minutes, and observed under a fluorescent microscope.

LAP2 [1] = biological target: T1, LAP2 (Escherichia coli, UniProt P32099, W38V); conditions: coumarin ligation
[2] = tested on: FKBP-LAP1 and FRB-LplAW37V; conditions: FRB fusions, ID-PRIME labeling of FKBP-LAP1
Experimental: Growth media was then removed and the cells were labeled by applying 20 μM coumarin-AM2 in serum-free DMEM at 37° C. for 10 minutes. Excess coumarin was washed out with three changes of fresh DMEM over 60 minutes at 37° C. Cells were imaged in DPBS. Confocal images were acquired at 60× magnification.

LAP2 [3] = biological target: T1, LAP2; conditions: cited from earlier work
[4] = tested on: LAP peptide (sequence=GFEIDKVWYDLDA); conditions: 1 μM ligase, 200 μM LAP peptide, 500 μM resorufin-AM2, 30° C., 1 hour
Experimental: These DNA fragments were cloned into expression vectors and expressed in E. coli cells. The ligase activity of the LplA mutants thus prepared in catalyzing formation of resorufin-LAP conjugate was tested as described below. 1 μM Lipoic acid ligase, 200 μM, LAP peptide (sequence=[…]), ligase, 500 μM resorufin-AM2, 2 mM ATP, and 5 mM magnesium acetate were mixed in an Eppendorf tube and incubated at 30° C. for 1 hour. Components in the mixture were analyzed by C18 HPLC and tandem ESI-MS, using 15%→40% acetonitrile linear gradient over 8 minutes containing 0.1% formic acid to resolve resorufin, LAP, and resorufin-LAP conjugate. A mixtures omitting ATP or the lipoic acid ligase was used as a negative control.

B1: W37V: E. coli LplA single mutant W37V, coumarin ligase (protein)
chain: STLRLLISDSYDPWFNLAVEECIFRQMPATQRVLFLVRNADTVVIGRAQNPWKECNTRRMEEDNVRLARRSSGGGAVFHDLGNTCFTFMAGKPEYDKTISTSIVLNALNALGVSAEASGRNDLVVKTVEGDRKVSGSAYRETKDRGFHHGTLLLNADLSRLANYLNPDKKKLAAKGITSVRSRVTNLTELLPGITHEQVCEAITEAFFAHYGERVEAEIISPNKTPDLPNFAETFARQSSWEWNFGQAPAFSHLLDERFTWGGVELHFDVEKGHITRAQVFTDSLNPAPLEALAGRLQGCLYRADMLQQECEALLVDFPEQEKELRELSAWMAGAVR
modifications: E. coli
For B1, the “catalytic rate slower than lipoic acid ligation” value (FKBP-LAP1) was 22 times, the “kcat for coumarin ligation to LAP1” value (FKBP-LAP1; purified FKBP-LAP1) was 0.01 ± 0.001 s⁻¹ and the Km (FKBP-LAP1; read-out: Km of the enzyme for LAP1, coumarin probe, purified FKBP-LAP1) was 681 ± 168 µM. For the same molecule, the “substrate specificity in cells” value (LAP-YFP fusion protein) was “only catalyzes conjugate of 7-hydroxycoumarin”, the Kcat for coumarin (LAP2 [1]) was 0.019 s⁻¹ and the “background versus expression level” value [2] was “increased with expression level”. The “reported kcat for coumarin ligation to LAP2” value (LAP2 [3]) was 0.019 s⁻¹ and the “Yield of resorufin-LAP conjugate” value [4] was under 5%.
